{"source": "patent US20060193821", "key": {"[1]": {"target": "T1, IL-23 (human, p19/p40 heterodimer) (Homo sapiens) (UniProt Q9NPF7+P29460)", "T1 sequence (Q9NPF7 20-189, chain 1 of 2)": "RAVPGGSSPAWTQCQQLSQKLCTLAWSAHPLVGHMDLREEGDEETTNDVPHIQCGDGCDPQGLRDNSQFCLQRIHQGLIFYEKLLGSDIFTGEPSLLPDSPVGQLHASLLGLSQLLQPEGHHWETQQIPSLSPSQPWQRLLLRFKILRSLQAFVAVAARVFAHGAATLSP", "T1 sequence (P29460 23-328, chain 2 of 2)": "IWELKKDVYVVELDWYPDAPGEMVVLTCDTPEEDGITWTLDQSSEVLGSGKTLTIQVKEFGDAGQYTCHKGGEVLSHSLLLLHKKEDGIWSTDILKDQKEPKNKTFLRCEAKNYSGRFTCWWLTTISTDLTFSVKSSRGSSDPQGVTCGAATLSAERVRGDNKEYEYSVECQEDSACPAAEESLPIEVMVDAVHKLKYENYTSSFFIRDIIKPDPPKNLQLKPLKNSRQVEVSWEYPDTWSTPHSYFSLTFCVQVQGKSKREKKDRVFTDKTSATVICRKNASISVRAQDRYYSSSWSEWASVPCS", "test": "filter", "details": "2'-F C,U; SHMCK, tRNA"}, "[2]": {"target": "T1, IL-23 (human, p19/p40 heterodimer) (Homo sapiens)", "test": "cell_activity", "details": "2'-F C and U, 2'-OH A and G; TransAM STAT3, PHA blasts"}}, "data": [{"sequence": "AGGGAAAAGGAAUCAUACACAAGAUGUAUCAUCCGGUCGUACAAAAGCGCCACGGAACCAUUCGCUCCGCCAGANACCAACCGAGAA [ARX33-plate1-H01]", "values": [{"measurement": "Kd", "setting": "[1]", "value": 0.0778, "unit": "µM"}, {"measurement": "IC50", "setting": "[2]", "value": "> 5", "unit": "µM"}]}]}
